Source: patent US20200283478A1 (Genentech, published 2020)
Ends that are not written are not given here. * marks the point of attachment. Pentanoyl = CCCCC(=O)*

Key:
[1] = biological target: T1, His-tagged PCSK9Δhelix (human, UniProt Q8NBP7 31-152; Q8NBP7 168-692); assay: TR-FRET competition; His-PCSK9Δhelix, competitor Ab20
T1 construct: Construct M1-Q692 with engineered TEV site, cut by TEV protease; new N-terminus of the catalytic domain is S-A168; also called His-PCSK9Δhelix

[2] = biological target: T2, His-tagged, full-length PCSK9 (human, UniProt Q8NBP7 31-692); assay: TR-FRET competition; His-PCSK9, competitor EGF(A)-Fc
T2 construct: The secreted protein is autocleaved into a prodomain and a catalytic/Cys-rich chain that starts at S153; also called His-PCSK9
T2 sequence (Q8NBP7 other isoform, or with tags, fused parts or gaps limits assumed): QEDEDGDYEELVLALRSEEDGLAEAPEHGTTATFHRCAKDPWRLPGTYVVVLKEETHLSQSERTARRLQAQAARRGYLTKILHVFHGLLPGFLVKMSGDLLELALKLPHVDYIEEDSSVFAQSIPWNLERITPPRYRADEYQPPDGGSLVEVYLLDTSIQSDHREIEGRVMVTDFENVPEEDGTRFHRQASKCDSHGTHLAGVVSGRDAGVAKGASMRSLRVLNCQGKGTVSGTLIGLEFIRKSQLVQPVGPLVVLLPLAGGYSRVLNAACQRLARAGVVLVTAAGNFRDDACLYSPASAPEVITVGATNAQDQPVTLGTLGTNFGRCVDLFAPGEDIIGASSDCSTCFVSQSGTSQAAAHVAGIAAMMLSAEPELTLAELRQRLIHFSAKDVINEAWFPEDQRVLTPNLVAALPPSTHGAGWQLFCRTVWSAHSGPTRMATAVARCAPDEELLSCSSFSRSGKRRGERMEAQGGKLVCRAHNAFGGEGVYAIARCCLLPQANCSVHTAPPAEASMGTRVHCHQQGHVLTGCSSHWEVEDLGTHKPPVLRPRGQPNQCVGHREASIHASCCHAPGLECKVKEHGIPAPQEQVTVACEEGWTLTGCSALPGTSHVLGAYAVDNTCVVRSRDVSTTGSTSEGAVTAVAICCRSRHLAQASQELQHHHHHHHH
Procedure: Signal generation in the PCSK9 binding assays was dependent upon the binding interaction to bring into close proximity the His-tag on the PCSK9 and the Fc-tag on the ligand. Anti-His-APC was bound to the His-tag, and anti-Fc-europium was bound to the Fc-tag.
Compounds were solubilized and dilutions were prepared in DMSO. […] The plate was centrifuged to mix the well contents and allowed to incubate for 30 min. […] The normalized TR-FRET ratios were plotted as a function of the compound concentrations, and the IC₅₀ values were determined using a 4-parameter logistic regression.

T1 sequence (Q8NBP7 31-152, stated change not applied, chain 1 of 2): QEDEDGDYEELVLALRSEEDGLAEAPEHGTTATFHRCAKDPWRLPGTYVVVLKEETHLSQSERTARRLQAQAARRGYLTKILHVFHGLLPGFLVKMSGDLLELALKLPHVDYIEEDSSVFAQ
T1 sequence (Q8NBP7 other isoform, or with tags, fused parts or gaps mutant, chain 2 of 2): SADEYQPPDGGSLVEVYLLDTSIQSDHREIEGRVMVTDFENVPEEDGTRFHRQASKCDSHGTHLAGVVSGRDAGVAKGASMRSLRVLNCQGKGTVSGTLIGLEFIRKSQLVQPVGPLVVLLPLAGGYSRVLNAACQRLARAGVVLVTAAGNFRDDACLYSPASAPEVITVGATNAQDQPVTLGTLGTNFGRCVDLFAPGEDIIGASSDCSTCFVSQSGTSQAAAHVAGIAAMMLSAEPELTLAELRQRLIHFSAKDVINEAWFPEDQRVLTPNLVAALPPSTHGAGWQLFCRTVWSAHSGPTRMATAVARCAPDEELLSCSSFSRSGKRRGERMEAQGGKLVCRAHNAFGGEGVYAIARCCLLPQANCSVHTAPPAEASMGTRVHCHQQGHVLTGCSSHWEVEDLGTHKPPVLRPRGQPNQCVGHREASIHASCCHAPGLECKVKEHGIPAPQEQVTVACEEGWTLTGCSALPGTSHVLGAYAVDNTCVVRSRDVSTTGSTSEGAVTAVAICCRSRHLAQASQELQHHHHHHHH

| IC50 [1] [µM] | IC50 [2] [µM] | Binder |
| --- | --- | --- |
| 5.6 | – | Ac-SGDLMPWNLVRIGLLR-NH2 [Compound 122] |
| 43 | ≥ 50 | WNLVRIGLTR (also: further groups not given here, Structure printed only as a drawing) [Compound 167] |
| 12 | 19 | WNLVRIGTLR (also: further groups not given here, Structure printed only as a drawing) [Compound 184] |
| 12 | ≥ 50 | Pentanoyl-WNLVRIGLAR-NH2 (SMILES CCCCC(=O)N[C@@H](Cc1c[nH]c2ccccc12)C(=O)N[C@@H](CC(N)=O)C(=O)N[C@@H](CC(C)C)C(=O)N[C@H](C(=O)N[C@@H](CCCNC(=N)N)C(=O)N[C@H](C(=O)NCC(=O)N[C@@H](CC(C)C)C(=O)N[C@@H](C)C(=O)N[C@@H](CCCNC(=N)N)C(N)=O)[C@@H](C)CC)C(C)C) [Compound 180] |
| 18 | ≥ 50 | Pentanoyl-WNLVRIGLTR [Compound 176] |
| 8.9 | ≥ 50 | Pentanoyl-WNLVRIGLSR-NH2 (SMILES CCCCC(=O)N[C@@H](Cc1c[nH]c2ccccc12)C(=O)N[C@@H](CC(N)=O)C(=O)N[C@@H](CC(C)C)C(=O)N[C@H](C(=O)N[C@@H](CCCNC(=N)N)C(=O)N[C@H](C(=O)NCC(=O)N[C@@H](CC(C)C)C(=O)N[C@@H](CO)C(=O)N[C@@H](CCCNC(=N)N)C(N)=O)[C@@H](C)CC)C(C)C) [Compound 181] |
| 3.1 | ≥ 50 | WNLVRIGLTR (also: further groups not given here, Structure printed only as a drawing) [Compound 170] |
| 37 | ≥ 50 | WNLVRIGLTR (also: further groups not given here, Structure printed only as a drawing) [Compound 162] |
| 5 | ≥ 50 | WNLVRIGLTR (also: further groups not given here, Structure printed only as a drawing) [Compound 161] |
| 9.8 | ≥ 50 | WNLVRIGLTR (also: further groups not given here, Structure printed only as a drawing) [Compound 173] |
| 5.9 | ≥ 50 | WNLVRIGLTR (also: further groups not given here, Structure printed only as a drawing) [Compound 166] |
| 0.39 | 5.7 | WNLVRIGTLR (also: further groups not given here, Structure printed only as a drawing) [Compound 185] |
| 12 | ≥ 50 | WNLVRIGLTR (also: further groups not given here, Structure printed only as a drawing) [Compound 164] |

More lines, now with the values behind:

| Binder | IC50 [1] [µM] | IC50 [2] [µM] |
| --- | --- | --- |
| {n‑PrC(O)}-WNLVRIGLLR-NH2 [Compound 123] | 18 | ≥ 50 |
| WNLVRIGLTR (also: further groups not given here, Structure printed only as a drawing) [Compound 188] | 7.6 | 22 |
| WNLVRIGLTR (also: further groups not given here, Structure printed only as a drawing) [Compound 163] | 37 | ≥ 50 |
| Pentanoyl-WNLVRIGLER-NH2 (SMILES CCCCC(=O)N[C@@H](Cc1c[nH]c2ccccc12)C(=O)N[C@@H](CC(N)=O)C(=O)N[C@@H](CC(C)C)C(=O)N[C@H](C(=O)N[C@@H](CCCNC(=N)N)C(=O)N[C@H](C(=O)NCC(=O)N[C@@H](CC(C)C)C(=O)N[C@@H](CCC(=O)O)C(=O)N[C@@H](CCCNC(=N)N)C(N)=O)[C@@H](C)CC)C(C)C) [Compound 177] | 35 | ≥ 50 |
| WNLVRIGLTR (also: further groups not given here, Structure printed only as a drawing) [Compound 165] | 18 | ≥ 50 |
| WNLVRIGLTR (also: further groups not given here, Structure printed only as a drawing) [Compound 168] | 7.8 | ≥ 50 |
| Pentanoyl-WNLVRIGLDR-NH2 (SMILES CCCCC(=O)N[C@@H](Cc1c[nH]c2ccccc12)C(=O)N[C@@H](CC(N)=O)C(=O)N[C@@H](CC(C)C)C(=O)N[C@H](C(=O)N[C@@H](CCCNC(=N)N)C(=O)N[C@H](C(=O)NCC(=O)N[C@@H](CC(C)C)C(=O)N[C@@H](CC(=O)O)C(=O)N[C@@H](CCCNC(=N)N)C(N)=O)[C@@H](C)CC)C(C)C) [Compound 178] | 18 | ≥ 50 |
| WNLVRIGLTR (also: further groups not given here, Structure printed only as a drawing) [Compound 169] | 6.8 | ≥ 50 |
| WNLVRIGTLR (also: further groups not given here, Structure printed only as a drawing) [Compound 182] | 4 | 14 |
| WNLVRIGLTR (also: further groups not given here, Structure printed only as a drawing) [Compound 172] | 8.5 | ≥ 50 |
| WNLVRIGLTR (also: further groups not given here, Structure printed only as a drawing) [Compound 171] | 7.7 | ≥ 50 |
| Pentanoyl-WNLVRIGLGR-NH2 (SMILES CCCCC(=O)N[C@@H](Cc1c[nH]c2ccccc12)C(=O)N[C@@H](CC(N)=O)C(=O)N[C@@H](CC(C)C)C(=O)N[C@H](C(=O)N[C@@H](CCCNC(=N)N)C(=O)N[C@H](C(=O)NCC(=O)N[C@@H](CC(C)C)C(=O)NCC(=O)N[C@@H](CCCNC(=N)N)C(N)=O)[C@@H](C)CC)C(C)C) [Compound 179] | 11 | ≥ 50 |
| Pentanoyl-WNLKRIGLLR-NH2 (SMILES CCCCC(=O)N[C@@H](Cc1c[nH]c2ccccc12)C(=O)N[C@@H](CC(N)=O)C(=O)N[C@@H](CC(C)C)C(=O)N[C@@H](CCCCN)C(=O)N[C@@H](CCCNC(=N)N)C(=O)N[C@H](C(=O)NCC(=O)N[C@@H](CC(C)C)C(=O)N[C@@H](CC(C)C)C(=O)N[C@@H](CCCNC(=N)N)C(N)=O)[C@@H](C)CC) [Compound 159] | 6.6 | ≥ 50 |
| WNLVRIGTLR (also: further groups not given here, Structure printed only as a drawing) [Compound 183] | 2.5 | 18 |
